The text below walks through data of patent US20130089497A1 (Genentech, published 2013).

The test addresses T1, gD tagged human FcRH2 on SVT2 cells (human, UniProt Q96LA5 20-508).
T1 construct: whole, on cells; also called huFcRH2; not shown: gD tag; the construct for this FcRH is not described
T1 sequence (looked up): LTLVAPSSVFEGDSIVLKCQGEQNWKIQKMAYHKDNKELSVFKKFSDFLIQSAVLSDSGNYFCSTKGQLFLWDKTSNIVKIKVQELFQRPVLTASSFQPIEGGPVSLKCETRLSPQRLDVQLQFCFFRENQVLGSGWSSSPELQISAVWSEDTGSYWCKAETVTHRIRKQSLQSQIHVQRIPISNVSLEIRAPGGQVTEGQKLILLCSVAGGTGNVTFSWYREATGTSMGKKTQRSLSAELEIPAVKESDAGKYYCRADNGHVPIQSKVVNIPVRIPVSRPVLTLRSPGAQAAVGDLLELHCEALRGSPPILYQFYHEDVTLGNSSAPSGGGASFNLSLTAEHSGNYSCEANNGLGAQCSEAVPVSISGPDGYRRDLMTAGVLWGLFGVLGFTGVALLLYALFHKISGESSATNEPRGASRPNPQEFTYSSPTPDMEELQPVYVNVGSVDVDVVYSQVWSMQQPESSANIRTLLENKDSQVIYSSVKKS
The test is described as follows: FACS, SVT2.MSCV.gD.FcRH2 cells, PE secondary antibody.

B1: murine monoclonal antibody anti-FcRH5-13G9 (antibody, V domains shown)
VH: EVQLVQSGPELKKPGETVKISCKASGYTFTNYGMNWVKQAPGKGLKWMGWVNTYTGEPTYTDDFKGRFAFSVETSASTVFLQINNLKNEDTATYFCARRSIPYYYAMDYWGQGTSLT
VL: DIVMTQSQKIMSTSVGDRVNVTCKASQNVGSNVAWYHQKPGQSPKALIYSASYRYSGVPDRFTGSGSGTDFTLTISNVQSEDLAEYFCQQYKTWTFGGGTKLEIKR
notes: Whole murine IgG from hybridoma; also called 13G9.1.1; mu13G9
As for B1, the binding result is recorded as “no binding (tested: 1.0 ug per about 10^6 cells (p-1120))”.
